Experimental data from the MegaScale stability set (Tsuboyama et al. 2023).

B1: EEHEE_rd4_0469 (parent)
chain: ITIHVNGVTYHFDNPEEAEKFAQKMAKTYQLKMEIHNGEFHME
B2: HEEH_KT_rd6_3546 (parent)
chain: SEEDKEREHWERLNRDFELRVLDTTFIAHHAEEVIKLLRWLEK

Variants of: B1
Assay: folding stability dG (cDNA display proteolysis); higher = more stable
Details: PBS, room temperature

Folding stability dG [kcal/mol], by site and new letter:
I1: D 0.302, A 0.749, C 1.65, T 0.826, F 1.08, L 0.959, R 1.01, Y 1.16, W 1.32, V 1.02, Q 0.734, H 0.725, K 0.846, E 0.225, G 0.443, P 0.64, N 0.57, S 0.683, M 0.992
T2: C 1.72, D 1.13, E 0.797, A 0.989, F 1.42

Variants of: B2
Assay: as above
Details: PBS, room temperature

Folding stability dG [kcal/mol] of substitutions, site by site:
K36: M 1.93, P 0.419, S 1.23, R 1.51, H 1.24, I 2.02, V 1.87, T 1.28, A 1.56, W 1.87, Y 1.82, N 1.28, C 2.09, Q 1.23, G 1.14, D 1, L 1.92, F 2.13, E 0.928
W40: V 0.885, E 0.585, Y 1.13, P -0.109, L 1.01, M 1.11, T 0.373, S 0.639, H 0.768, D 0.502, G 0.388, Q 0.781, C 1.55, K 0.6, N 0.617, I 1.31, R 0.934, F 1.1, A 0.156
E42: Y 2.57, H 1.63, R 1.85, T 2.1, P 0.291, I 2.41, A 1.82, L 2.42, N 1.56, W 2.59, D 1.07, F 2.75, Q 1.67, S 1.84, G 1.7, M 2.4, V 2.26, K 1.69
K43: R 1.65, M 1.5, Y 1.8, D 1.45, W 2.03, L 1.36, P 0.967, F 1.57, A 1.27, H 1.17, S 1.2, V 1.56, C 1.57, Q 1.36, N 1.3, T 1.22, E 1.3, G 1.82, I 1.38
E32: C 1.31, F 2.21, S 1.42, H 1.42, N 1.26, M 1.72, Q 1.29, A 1.93, R 1.37, V 1.79, L 1.92, I 1.73, P 1.25, D 1.23, W 2.1, K 1.54, G 1.2, Y 1.9, T 1.43
L38: T 0.188, C 1.78, E -0.1, R 0.8, K 0.405, Y 0.971, F 1.39, V 0.9, M 0.931, W 1.61, I 1.09, N 0.045, A 0.316, G -0.072, P -0.432, H 0.371, S 0.079, Q 0.257, D -0.361
I35: D 0.67, W 1.59, Q 0.925, G 0.628, T 0.787, Y 1.33, V 1.17, H 0.843, N 0.739, R 1.12, P -0.407, E 0.843, C 1.88, L 1.47, K 0.927, F 1.49, A 1.03, S 0.508, M 1.33
R39: M 1.21, I 1.77, L 1.59, N 0.829, F 1.7, H 1.17, Q 0.982, G 0.742, K 1.28, E 0.969, A 0.866
